Data published in paper PMC3712460.
Numbering of substitutions follows the chain as printed. Names and notes keep the numbering of the source.

B1: NapD^His (natural protein)
chain: MHTNWQVCSLVVQAKSERISDISTQLNAFPGCEVAVSDAPSGQLIVVVEAEDSETLIQTIESVRNVEGVLAVSLVYHQQEEQGEETP
B2: NapD T59I (NapD^His variant) (natural protein)
chain: B1 chain with T59I
B3: NapD A14T/A71T (NapD^His variant) (natural protein)
chain: B1 chain with A14T, A71T
B4: NapD I19F (NapD^His variant) (natural protein)
chain: B1 chain with I19F
B5: NapD A71T (NapD^His variant) (natural protein)
chain: B1 chain with A71T
B6: NapD I19F/T59I (NapD^His variant) (natural protein)
chain: B1 chain with I19F, T59I
B7: NapD A14T (NapD^His variant) (natural protein)
chain: B1 chain with A14T

What was measured:
Test in all cases: ITC
[1] = biological target: NapA signal peptide (Escherichia coli) (UniProt P33937); settings: cited from earlier work
[2] = biological target: ϕMalE-NapAsp^His (E. coli)
[3] = biological target: ϕMalE-NapAsp^His A17Q variant (E. coli)
[4] = biological target: ϕMalE-NapAsp^His K10Q (E. coli)
[5] = biological target: ϕMalE-NapAsp^His M9Q (E. coli)
[6] = biological target: ϕMalE-NapAsp^His R6Q (E. coli)

Molecule	Kd [3] [nM]	stoichiometry N [3]	Kd [2] [nM]	stoichiometry N [2]	Kd, population 1 (two sites) [3] [nM]	Kd, population 2 (two sites) [3] [nM]	N, population 1 (two sites) [3]	N, population 2 (two sites) [3]	also measured
NapD (from UniProt P0A9I5)									Kd [1]: 7 nM
B1	1100	0.16							Kd, population 1 (two sites) [2]: 3 nM; Kd, population 2 (two sites) [2]: 143 nM; N, population 1 (two sites) [2]: 0.35; N, population 2 (two sites) [2]: 0.64; Kd [4]: 1300 nM; stoichiometry N [4]: 0.33; Kd, population 1 (two sites) [5]: 1 nM; Kd, population 2 (two sites) [5]: 75 nM; N, population 1 (two sites) [5]: 0.13; N, population 2 (two sites) [5]: 0.65; Kd [6]: 725 nM; stoichiometry N [6]: 0.6
B2	633	0.57	328	0.81					
B3			571	0.91	12	218	0.3	0.69	
B4			806	0.97	14	704	0.29	0.62	
B5	833	1.11	313	0.83					
B6			935	0.39	22	261	0.25	0.65	
B7	1870		763	0.7					
